According to US20030129703A1 (Regeneron, published 2003):

Key:
[1] = target: T1, Fc-tagged human noggin (human, UniProt Q13253 28-232); experiment: ELISA on plate-coated hBMP4
T1 construct: Secreted protein; also called hNG-Fc; not shown: Fc domain of human IgG1 (BspEI-NotI human IgG1 fragment), hinge and Fc
T1 sequence: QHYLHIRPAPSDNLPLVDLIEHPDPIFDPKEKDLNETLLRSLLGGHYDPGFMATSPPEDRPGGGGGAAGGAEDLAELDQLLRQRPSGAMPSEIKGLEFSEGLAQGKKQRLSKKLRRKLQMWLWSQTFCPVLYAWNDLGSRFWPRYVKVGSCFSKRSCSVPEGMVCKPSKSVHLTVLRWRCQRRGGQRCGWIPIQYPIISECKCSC
Experimental: Unbound hBMP4 was removed by washing four times with PBS, and the plates were blocked with 1% BSA in PBS. […] After a 1 hour incubation unbound anti-Fc●AP was removed by washing four times with TBS+0.1% Tween and then Alkaline Phosphatase substrate (para-nitrophenyl phosphate; Sigma) was added. Alkaline Phosphatase converts this substrate to a product whose production can be monitored by measuring Absorbance at 405 nm.
To determine if this hNG mutein was active, its ability to bind to hBMP4 was compared with that of hNG-Fc, which binds human Bone Morphogenetic Protein 4 (hBMP4) with affinity essentially identical to that of untagged hNG. An ELISA format assay where hBMP4 is captured on the surface of an ELISA plate was used to compare the two proteins.

[2] = target: T2, hNGΔ133-179Fc (human, UniProt Q13253 28-232); experiment: binding to BMP4; assay not detailed
T2 construct: not shown: peptide bridge to the Fc; Fc domain of human IgG1
T2 sequence: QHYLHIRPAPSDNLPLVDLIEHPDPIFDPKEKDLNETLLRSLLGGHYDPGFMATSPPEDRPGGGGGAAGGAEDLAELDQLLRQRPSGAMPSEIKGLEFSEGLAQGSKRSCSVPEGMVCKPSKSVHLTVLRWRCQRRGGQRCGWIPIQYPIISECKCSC

- binding result [1]: binds
- binding result [2]: no binding
B1: human Bone Morphogenetic Protein 4 (ligand, UniProt P12644 293-408, looked up)
chain: SPKHHSQRARKKNKNCRRHSLYVDFSDVGWNDWIVAPPGYQAFYCHGDCPFPLADHLNSTNHAIVQTLVNSVNSSIPKACCVPTELSAISMLYLDEYDKVVLKNYQEMVVEGCGCR
notes: also called hBMP4; BMP4
